Assay [1] concerns the target Tau-derived peptide Tau401-418, phosphorylated (T4.5) (human). Description: SPR (Biacore T100), antibody captured via Protein G on CM7 chip, peptide T4.5 as analyte 50-800 nM, single-cycle kinetics, 1:1 Langmuir fit.
In assay [2] the target is T1, Tau-derived peptide Tau401-418, not phosphorylated (T4.6) (human).
T1 construct: it is called the non-phosphorylated version of the same peptide as T4.5 (Tau401-418); also called corresponding non-phosphorylated Tau peptide
T1 peptide: GDTSPRHLSNVSSTGSID
Put plainly: direct ELISA on plate-coated peptide (10 ug/mL), AP-conjugated anti-human IgG, O.D. at 405 nm. Here is the method: Binding of hACl-36-2B6-Ab1 and hACl-36-3A8-Ab1 to T4 Peptides by ELISA 1.1. Method 1.1.1 Phospho-Tau Binding Assay To test the binding of the antibody to pTau, an ELISA assay was used. Nunc MaxiSorp 96-well plates (Nunc, Denmark) were coated with 10 µg/mL of the Tau-derived peptide Tau401-418, phosphorylated (T4.5) or not (T4.6) on serine 409. Coating was done overnight in phosphate-buffered saline (PBS; Sigma-Aldrich, Switzerland) at 4° C. Plates were washed thoroughly with 0.05% Tween20/PBS and then blocked with 1% bovine serum albumin (BSA; Sigma-Aldrich) in 0.05% Tween20/PBS for 1 hr at 37° C. The supernatant containing the antibody being tested was then added in 8 two-fold dilutions, starting at 0.5 µg/mL, and incubated for 2 hr at 37° C. Plates were then washed as described previously, and an alkaline phosphatase (AP) conjugated goat anti-human IgG (Jackson ImmunoResearch Laboratories, England) was added at 1/2,000 dilution in 0.05% Tween20/PBS for 2 hr at 37° C. After washing, plates were incubated with p-nitrophenyl phosphate disodium hexahydrate (pNPP; Sigma-Aldrich, Switzerland) phosphatase substrate solution, and read at 405 nm following 1 hr incubation using a microplate reader (Tecan, Switzerland). Results are expressed as optical density (O.D.). […]
(In general: In an ELISA, binding on a coated surface is turned into a signal by an enzyme label.)

Positions count from the first letter of the chain named.

Sequence of Tau-derived peptide Tau401-418, phosphorylated (T4.5) (human) (peptide, as listed by the source): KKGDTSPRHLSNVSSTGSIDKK

B1: humanized antibody hACl-36-2B6-Ab1 (IgG4) (antibody, V domains shown)
VH: QVQLVQSGAEVKKPGSSVKVSCKASGYTFTDYYMNWVRQAPGQGLEWIGDINPNRGGTTYNQKFKGRVTITVDKSTSTAYMELSSLRSEDTAVYYCASYYAVGYWGQGTTVTVSS
VL: DIVMTQTPLSLPVTPGEPASISCRSSQSLVHSHGKTYLHWYLQKPGQSPQLLIYKVSNRFSGVPDRFSGSGSGTDFTLKISRVEAEDVGVYFCSQTAHFPYTFGGGTKVEIKR
notes: Humanized IgG4, kappa; also called 2B6A10C11
By Kd is commonly meant the concentration at which binding is half-saturated. A lower Kd goes with tighter binding. The term koff denotes the rate constant with which the complex falls apart. Low readings indicate slow dissociation, high ones fast dissociation. For orientation: kon means the rate constant with which the complex forms. A low value points to slow association. With B1, in assay [1], the dissociation constant (Kd) came out at 67 nM, the koff stood at 0.0036 s⁻¹ and the kon is 54000 M⁻¹ s⁻¹. Moreover, the binding result in assay [2] is “no binding (tested: 0.5 ug/mL)”.

B2: humanized antibody hACl-36-3A8-Ab1 (IgG4) (antibody, V domains shown)
VH: B1 VH
VL: B1 VL with S28R
notes: Humanized IgG4, kappa; Tested as a supernatant containing the antibody; also called 3A8A12G7
On to B2, for which the binding result in assay [2] was “no binding (tested: 0.5 ug/mL)”.

Source of the values: patent publication US9657091 (AC IMMUNE S A, dated 2017).
